Data published in patent US5854388A, “Angiotensin IV peptides and receptor” (Washington State University Research Foundation, priority 1994, dated 1998).
Entries after “also recorded” stand apart in the source; their conditions may differ. Read-outs that look alike come from different tables or passages of the source. Positions of bridges follow the written chain, without caps; N, C: chain ends. Non-standard residues stand in square brackets, D forms with d. Residues, ends and D or L forms follow the SMILES beside them. No end group written: not given here. *: point of attachment. Ileψ(thiazoline)Cys = CC[C@H](C)[C@H](N)C1=N[C@H](C(=O)*)CS1; NMeI = CC[C@H](C)[C@H](NC)C(=O)O; dOrn = NCCC[C@@H](N)C(=O)O; Nle = CCCC[C@H](N)C(=O)O; Orn = NCCC[C@H](N)C(=O)O; GABA = NCCCC(=O)O

Legend:
AT4 receptor [1] = biological target: T1, AT4 receptor (Bos taurus, UniProt F1N1Q8); assay: 125I-AIV binding and competition, bovine adrenal cortical membranes
T1 sequence (F1N1Q8 1-1022): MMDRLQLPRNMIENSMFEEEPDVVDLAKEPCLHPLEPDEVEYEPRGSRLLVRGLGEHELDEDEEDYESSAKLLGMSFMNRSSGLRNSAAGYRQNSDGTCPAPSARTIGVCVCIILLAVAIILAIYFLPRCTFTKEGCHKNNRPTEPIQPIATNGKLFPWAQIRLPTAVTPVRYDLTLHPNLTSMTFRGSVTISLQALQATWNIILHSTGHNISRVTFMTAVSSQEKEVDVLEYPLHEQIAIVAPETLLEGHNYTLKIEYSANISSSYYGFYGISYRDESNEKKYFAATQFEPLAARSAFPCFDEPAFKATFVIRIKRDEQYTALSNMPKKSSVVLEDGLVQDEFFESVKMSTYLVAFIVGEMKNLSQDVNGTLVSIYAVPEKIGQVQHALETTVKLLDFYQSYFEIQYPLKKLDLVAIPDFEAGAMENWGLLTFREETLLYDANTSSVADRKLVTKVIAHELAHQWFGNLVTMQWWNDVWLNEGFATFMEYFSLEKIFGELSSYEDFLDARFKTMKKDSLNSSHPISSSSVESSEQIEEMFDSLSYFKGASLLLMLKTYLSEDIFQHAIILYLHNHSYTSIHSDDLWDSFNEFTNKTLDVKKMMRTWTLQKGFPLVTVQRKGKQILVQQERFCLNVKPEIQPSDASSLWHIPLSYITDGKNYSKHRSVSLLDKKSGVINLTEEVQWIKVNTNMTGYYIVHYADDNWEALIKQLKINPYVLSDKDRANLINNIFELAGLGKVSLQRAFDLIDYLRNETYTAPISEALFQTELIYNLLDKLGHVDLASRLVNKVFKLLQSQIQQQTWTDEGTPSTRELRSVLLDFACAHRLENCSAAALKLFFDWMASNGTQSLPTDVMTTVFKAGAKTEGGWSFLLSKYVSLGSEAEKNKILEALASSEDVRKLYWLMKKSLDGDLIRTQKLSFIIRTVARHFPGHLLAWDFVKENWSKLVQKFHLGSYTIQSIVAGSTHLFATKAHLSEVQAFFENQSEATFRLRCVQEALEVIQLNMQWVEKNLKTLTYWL

AT4 receptor [2] = biological target: T1, AT4 receptor; assay: 125I-AIV binding and competition, solubilized bovine adrenal cortical receptor
rat kidney = assay: Renal cortical blood flow (laser doppler) and arterial pressure after infusion into the renal artery; type: in vivo; details: for agonist / antagonist activity (in words): renal blood flow response compared to AIV
AT4 receptor [3] = biological target: T1, AT4 receptor; assay: 125I-AIV binding and competition, coronary venular endothelial cell (CVEC) membranes; set-up: species or system bovine

DYIHPF
Kd (AT4 receptor [1]): > 1000 nM | binding affinity for the AT4 receptor (in words) (AT4 receptor [1]): virtually no affinity

V[D-Y2 ]IHPF [D-Y2 AIV]
binding affinity for the AT4 receptor (in words) (AT4 receptor [1]): very low affinity; also recorded: low binding affinity | Ki (AT4 receptor [2]; read-out: Ki): 416 nM

GABA-YIHPF ([GABA]YIHPF)
decrease in binding affinity relative to AIV (AT4 receptor [1]): 250 fold

IYIHPF [I1 YIHPF]
binding affinity for the AT4 receptor (in words) (AT4 receptor [1]): only a slight change (an increase) in binding affinity; also recorded: nearly the same binding affinity

NleYIHPF ([Nle]YIHPF)
maximum increase in renal blood flow (rat kidney; 0.05 pmole): 19% | maximum increase in renal blood flow (rat kidney; 0.1 pmole): 19% | maximum increase in renal blood flow (rat kidney; 10 pmole): 21% | increase in renal blood flow (rat kidney; 100 pmole): 30% | effect on arterial blood pressure (in words) (rat kidney; rat, in vivo): no effect on mean arterial pressure | agonist / antagonist activity (in words) (rat kidney; listed as Nle1 -AIV): only a partial agonist | agonist / antagonist activity (in words) (rat kidney; listed as Nle1 YIHPF): partial agonist

OrnYIHPF ([Orn]YIHPF)
binding affinity for the AT4 receptor (in words) (AT4 receptor [1]): higher binding affinity than AIV

VF2 IHPF (VFIHPF)
binding affinity for the AT4 receptor (in words) (AT4 receptor [1]): very low affinity

V1 Y2 I3 H4 P5 F6 H7 (VYIHPFH) [AI(3-9)]
binding affinity for the AT4 receptor (in words) (AT4 receptor [1]): did not alter binding significantly | binding affinity for the AT4 receptor (in words) (AT4 receptor [1]; listed as V1 Y2 I3 H4 P5 F6 H7): does not alter binding

VPIHYF [Phe2 Tyr6 AIV, positions of the Phe and Tyr residues in AIV reversed]
binding affinity for the AT4 receptor (in words) (AT4 receptor [1]): very low binding affinity

VYIHPI [VYIHPI6]
binding affinity for the AT4 receptor (in words) (AT4 receptor [1]): higher affinity than the parent VYIHPF; also recorded: higher binding affinity for the AT4 receptor than AIV

KYIHPI [KYIHPI6]
binding affinity for the AT4 receptor (in words) (AT4 receptor [1]): lower affinity than the parent KYIHPF6 | binding affinity for the AT4 receptor (in words) (AT4 receptor [1]; listed as Lys1 Ile6 -AIV): lower affinity than Lys1 -AIV

CC[C@H](C)[C@H](NC)C(=O)N[C@@H](Cc1ccc(O)cc1)C(=O)N[C@H](C(=O)N[C@@H](Cc1c[nH]cn1)C(=O)N1CCC[C@H]1C(=O)N[C@@H](Cc1ccccc1)C(=O)O)[C@@H](C)CC [CH3 -I1 YIHPF, N-methyl-Ile1 YIHPF] (H-[NMeI]YIHPF-OH)
decrease in affinity relative to I1YIHPF (AT4 receptor [1]; N-methylation of Ile1): 67 fold

F1 YIHPF (FYIHPF)
decrease in binding affinity relative to AIV (AT4 receptor [1]): 4 fold

VYIH
decrease in binding relative to VYIHP (AT4 receptor [1]): 21 fold | Ki (AT4 receptor [1]; read-out: Ki): > 500 nM

PYIHPF
decrease in binding affinity relative to AIV (AT4 receptor [1]): 8 fold

V1 Y2 I3 H4 P5 F6 H7 L8 (VYIHPFHL) [AI(3-10)]
decrease in binding affinity relative to AIV (AT4 receptor [1]): 2 fold

CC[C@H](C)[C@H](NC(=O)[C@@H](N)Cc1ccc(O)cc1)C(=O)N[C@@H](Cc1c[nH]cn1)C(=O)N1CCC[C@H]1C(=O)N[C@@H](Cc1ccccc1)C(=O)O [AII(4-8), YIHPF] (H-YIHPF-OH; N-terminus and C-terminus assumed)
decrease in binding affinity relative to AIV (AT4 receptor [1]): 1000 fold

CC[C@H](C)[C@H](N)C1=N[C@H](C(=O)N[C@@H](CC(C)C)C(=O)N[C@H](CCC(=O)O)C(=O)N[C@H](C(=O)N[C@H]2CCCCNC(=O)[C@H](CC(N)=O)NC(=O)[C@@H](CC(=O)O)NC(=O)[C@H](Cc3cnc[nH]3)NC(=O)[C@@H](Cc3ccccc3)NC(=O)[C@H]([C@@H](C)CC)NC(=O)[C@@H](CCCN)NC2=O)[C@@H](C)CC)CS1 [Bacitracin, ICLEIKOIFHDD, reference compound] ({Ileψ(thiazoline)Cys}-L[dE]IK[dOrn]I[dF]H[dD]N; lactam 4-C)
effect on binding of AIV ligand to the AT4 receptor (AT4 receptor [1]): inhibited

VYIHP [des Phe6 -AIV]
binding affinity for the AT4 receptor (in words) (AT4 receptor [1]): did not alter binding significantly | binding affinity for the AT4 receptor (in words) (AT4 receptor [1]; listed as V1 Y2 I3 H4 P5): does not alter binding significantly | increase in Ki (decrease in affinity) compared with AIV (AT4 receptor [3]): 7 fold | Ki (AT4 receptor [3]; competition of 0.5 nM 125I-AIV, read-out: Ki): 7.3 ± 1.2 nM | binding to solubilized AT4 receptor (in words) (AT4 receptor [2]; listed as VYIHP): retained AT4 receptor binding activity | binding to solubilized AT4 receptor (in words) (AT4 receptor [2]; listed as desPhe6 -AIV): still retained AIV binding activity
